These results are taken from patent US20130078247A1 (Boehringer Ingelheim, published 2013).

Experiment [1] addresses T1, mouse Ang2 (mouse, UniProt O35608 19-496, limits assumed).
T1 construct: also called mAng2
T1 sequence (looked up): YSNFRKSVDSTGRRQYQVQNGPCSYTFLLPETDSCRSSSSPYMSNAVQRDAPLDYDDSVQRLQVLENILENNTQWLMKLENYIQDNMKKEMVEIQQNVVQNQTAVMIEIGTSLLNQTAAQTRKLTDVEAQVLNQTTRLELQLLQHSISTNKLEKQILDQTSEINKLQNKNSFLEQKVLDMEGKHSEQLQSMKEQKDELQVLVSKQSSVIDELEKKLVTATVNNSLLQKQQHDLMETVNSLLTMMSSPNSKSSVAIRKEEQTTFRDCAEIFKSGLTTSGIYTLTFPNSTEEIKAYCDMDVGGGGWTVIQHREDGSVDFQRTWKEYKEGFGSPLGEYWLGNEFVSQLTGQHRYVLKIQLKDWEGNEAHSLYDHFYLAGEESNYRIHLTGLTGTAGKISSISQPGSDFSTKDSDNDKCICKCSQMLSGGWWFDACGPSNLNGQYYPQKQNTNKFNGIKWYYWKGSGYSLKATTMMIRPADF
Description: competition ELISA: mAng2 binding to mTie2. The protocol: (§1) This assay is also performed after incubation of the VHH with 0.5 μM human serum albumin.
For orientation: An ELISA detects its analyte on a solid surface through an enzyme-linked reagent.

For experiment [2], the target named is T2, cynomolgus Ang2 (cynomolgus).
T2 construct: also called cAng2; cyno Ang2
Description: competition ELISA: cAng2 binding to cTie2. How it is done:
as §1

The target in experiment [3] is T3, recombinant human DLL4 extracellular domain, C-terminally His-tagged (R&D Systems) (human, UniProt Q9NR61 25-522, biotinylated in the competition assays (sites not given)).
T3 construct: also called rhDLL4; hDLL4; not shown: C-terminal His tag
T3 sequence (Q9NR61 25-522): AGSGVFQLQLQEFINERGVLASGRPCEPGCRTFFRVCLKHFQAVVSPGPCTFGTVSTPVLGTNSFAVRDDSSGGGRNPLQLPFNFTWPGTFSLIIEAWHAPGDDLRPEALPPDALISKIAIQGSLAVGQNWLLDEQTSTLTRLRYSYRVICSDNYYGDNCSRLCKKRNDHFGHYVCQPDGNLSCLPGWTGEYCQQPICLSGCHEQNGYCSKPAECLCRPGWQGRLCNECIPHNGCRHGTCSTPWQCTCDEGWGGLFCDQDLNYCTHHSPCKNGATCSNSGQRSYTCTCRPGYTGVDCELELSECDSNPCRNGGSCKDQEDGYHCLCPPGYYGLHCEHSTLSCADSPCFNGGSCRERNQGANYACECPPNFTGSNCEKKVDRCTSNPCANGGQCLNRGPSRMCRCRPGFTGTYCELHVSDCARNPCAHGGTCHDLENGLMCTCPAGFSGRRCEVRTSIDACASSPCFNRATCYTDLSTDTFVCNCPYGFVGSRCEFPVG
Kind of experiment: periplasmic extract; hDLL4 ELISA.

Experiment [4] addresses T3, recombinant human DLL4 extracellular …. Description: periplasmic extract; Biacore off-rate.
The target is the same in experiment [5]. Description: periplasmic extract; hDLL4/hNotch1 AlphaScreen. The protocol: To this mixture, the acceptor beads and the streptavidin donor beads are added and further incubated for 1 hour at room temperature. Fluorescence is measured by reading plates on the Envision Multilabel Plate reader (Perkin Elmer, Waltham, Mass., USA) using an excitation wavelength of 680 nm and an emission wavelength of 520 nm.
In general terms: In Alpha technology, singlet oxygen from a donor bead excites a nearby acceptor bead.

For experiment [6], the target named is T4, human Ang2 (human, UniProt O15123 19-496, limits assumed).
T4 construct: also called hAng2; human Angiopoietin2
T4 sequence (looked up): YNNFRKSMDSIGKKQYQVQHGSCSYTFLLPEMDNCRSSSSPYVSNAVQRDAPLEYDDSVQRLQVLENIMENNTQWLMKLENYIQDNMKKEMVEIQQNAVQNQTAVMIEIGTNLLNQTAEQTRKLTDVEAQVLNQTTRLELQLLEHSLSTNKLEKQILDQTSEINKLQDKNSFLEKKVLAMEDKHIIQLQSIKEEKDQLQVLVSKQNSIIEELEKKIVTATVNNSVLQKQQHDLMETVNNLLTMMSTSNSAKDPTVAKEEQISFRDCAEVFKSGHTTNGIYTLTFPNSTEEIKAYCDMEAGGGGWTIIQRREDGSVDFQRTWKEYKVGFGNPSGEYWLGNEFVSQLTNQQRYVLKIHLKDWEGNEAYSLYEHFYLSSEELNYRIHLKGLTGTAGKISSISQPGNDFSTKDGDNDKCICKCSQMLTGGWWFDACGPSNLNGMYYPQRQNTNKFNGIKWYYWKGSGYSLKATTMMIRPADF
Description: competition ELISA hAng2/hTie2-Fc. The protocol: as §1

In experiment [7] the target is T4, human Ang2. Kind of experiment: competition ELISA hAng2/hTie2-Fc, with 0.5 uM HSA [continued]. How it is done:
as §1

Experiment [8] deals with T1, mouse Ang2. Description: competition ELISA: mAng2 binding to mTie2. How it is done: as §1
The source holds these as a separate data set.

In experiment [9] the target is T2, cynomolgus Ang2. Description: competition ELISA: cAng2 binding to cTie2. How it is done:
as §1
The source holds these as a separate data set.

The target in experiment [10] is T5, mouse DLL4, full length, overexpressed on CHO or HEK293 cells (mouse, UniProt Q9JI71 27-686).
T5 construct: whole, on cells; also called CHO-mDLL4; CHO-mDII4
Kind of experiment: FMAT competition: labelled hNotch1-Fc on CHO-mDLL4 cells. The source says:
(§2) All calculations are based on the FL1_total signal which comprises the average of the fluorescence per well times the number of counts per well.

Experiment [11] has as its target T1, mouse Ang2. Kind of experiment: competition ELISA mAng2/mTie2. How it is done: as §1
In experiment [12] the target is T6, recombinant human Jagged-1 (Alexis) (human, UniProt P78504 34-1067, limits assumed).
T6 construct: also called hJagged-1; hJAG1
Kind of experiment: rhDLL1/rhJAG1 binding ELISA.

Experiment [13] has as its target T7, recombinant human DLL1 (Alexis) (human, UniProt O00548 18-545, limits assumed).
T7 construct: also called hDLL1; rhDLL1
T7 sequence (looked up): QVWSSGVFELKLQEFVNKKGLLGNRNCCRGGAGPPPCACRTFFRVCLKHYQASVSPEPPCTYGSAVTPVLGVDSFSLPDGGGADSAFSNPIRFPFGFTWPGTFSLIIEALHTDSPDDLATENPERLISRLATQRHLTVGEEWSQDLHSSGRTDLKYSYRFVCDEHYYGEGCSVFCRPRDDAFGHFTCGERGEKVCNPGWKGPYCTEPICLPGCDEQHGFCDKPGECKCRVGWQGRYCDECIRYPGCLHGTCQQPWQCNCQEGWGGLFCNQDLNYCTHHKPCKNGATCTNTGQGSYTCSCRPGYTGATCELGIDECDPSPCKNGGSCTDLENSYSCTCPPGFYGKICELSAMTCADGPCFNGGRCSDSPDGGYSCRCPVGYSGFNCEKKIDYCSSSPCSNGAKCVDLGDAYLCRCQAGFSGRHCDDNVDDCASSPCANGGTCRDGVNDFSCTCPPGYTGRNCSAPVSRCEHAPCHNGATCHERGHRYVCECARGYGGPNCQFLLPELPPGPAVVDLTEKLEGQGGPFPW
Kind of experiment: rhDLL1/rhJAG1 binding ELISA.

The target of experiment [14] is T3, recombinant human DLL4 extracellular …. Description: binding ELISA on coated rhDLL4.
Experiment [15] deals with T8, recombinant mouse DLL4 extracellular domain, C-terminally His-tagged (R&D Systems) (mouse, UniProt Q9JI71 27-525).
T8 construct: range 1-525; also called rmDLL4; mDLL4; not shown: C-terminal His tag
T8 sequence (Q9JI71 27-525 limits assumed): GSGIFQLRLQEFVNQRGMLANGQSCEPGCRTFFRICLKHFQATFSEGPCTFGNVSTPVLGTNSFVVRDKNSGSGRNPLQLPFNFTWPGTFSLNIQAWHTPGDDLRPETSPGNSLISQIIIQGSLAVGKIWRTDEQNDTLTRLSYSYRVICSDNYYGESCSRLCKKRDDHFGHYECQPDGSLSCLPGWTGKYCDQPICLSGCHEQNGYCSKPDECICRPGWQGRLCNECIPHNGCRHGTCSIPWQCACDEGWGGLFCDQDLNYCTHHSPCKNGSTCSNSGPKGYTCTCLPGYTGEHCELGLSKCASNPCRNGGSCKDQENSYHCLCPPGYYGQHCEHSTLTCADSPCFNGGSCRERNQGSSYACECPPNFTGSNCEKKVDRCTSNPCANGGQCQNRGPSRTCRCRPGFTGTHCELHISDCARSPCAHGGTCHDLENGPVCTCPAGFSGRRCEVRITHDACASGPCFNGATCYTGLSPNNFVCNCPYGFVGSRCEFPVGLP
Kind of experiment: binding ELISA on coated rmDLL4. How it is done: In order to determine cross-reactivity to mouse DII4 a binding ELISA is performed. […] Wells are blocked with a casein solution (1% in PBS). VHHs are applied as dilution series and binding is detected using a mouse anti-myc (Roche) and an anti-mouse-AP conjugate (Sigma, St Louis, Mo., USA) (FIG. 7).

Experiment [16] deals with T9, human DLL4, full length, overexpressed on CHO or HEK293 cells (human, UniProt Q9NR61 27-685).
T9 construct: also called CHO-hDLL4; CHO-hDII4
Description: FMAT competition: labelled hNotch1-Fc on CHO-hDLL4 cells.
From the text: as §2

Where two headings read alike, the source gives them in different places.

B1: 00045 (VHH)
VHH: EVQLVESGGGLVQPGGSLRLSCAASGFALDYYAIGWFRQAPGKEREGVSCISSSDGITYYADSVKGRFTISRDNSKNTVYLQMNSLRPEDTAVYYCATDSGGYIDYDCMGLGYDYWGQGTLVTVSS
As for B1, the “IC50 (read off the curve)” value in the experiment with mouse Ang2 [1] and with cynomolgus Ang2 [2] was roughly 0.2 nM each time.

B2: DLLBII17G10 (VHH)
VHH: EVQLVESGGGLVQAGGSLRLSCAASGSTFSSYAMGWYRHQAPGKQRELVAAISSDGSTHYADSVKGRFTISRDNAKNTMYLQMNSLKPEDTAVYYCNTKTFGSNWYDDYWGQGTQVTVSS
notes: not shown: C-terminal c-myc and His6 tags
The term % inhibition denotes the change of the read-out against control, counted positive when it falls. One may read the koff as the first-order rate constant of dissociation. Regarding B2, the “% inhibition” value in experiment [3] is 93%; in experiment [5], 82%. Further, the koff in experiment [4] worked out at 0.0015 s⁻¹.

B3: 00042 (VHH)
VHH: EVQLVESGGGLVQPGGSLRLSCAASGFTLDDYAIGWFRQAPGKEREGVSSIRDNDGSTYYADSVKGRFTISSDNSKNTVYLQMNSLRPEDTAVYYCAAVPAGRLRFGEQWYPLYEYDAWGQGTLVTVSS
For the molecule B3, the “IC50 (read off the curve)” value with human Ang2 [6] and in the experiment with human Ang2 [7] was roughly 0.6 nM throughout.

B4: 00042 (VHH)
VHH: EVQLVESGGGLVQPGGSLRLSCAASGFTLDDYAIGWFRQAPGKEREGVSSIRDNDGSTYYADSVKGRFTISSDNSKNTVYLQMNSLRPEDTAVYYCAAVPAGRLRFGEQWYPLYEYDAWGQGTLVTVSS
Consider B4, for which the “IC50 (read off the curve)” value in the experiment with mouse Ang2 [1] is roughly 1 nM; in the experiment with mouse Ang2 [8], roughly 2 nM; in the experiment with cynomolgus Ang2 [2], roughly 0.5 nM; with cynomolgus Ang2 [9] it was roughly 0.8 nM.

B5: 78B04 (VHH)
VHH: EVQLVESGGGLVQAGGSLRLSCAASGRTFSNYIMGWFRQAPGKEREFVAGISRYGDYTYYADSVKGRFTISRDNVKNTVYLRMNSLKPDDTAVYYCAANEGYCSGYGCYEDSGQYDYWGQGTQVTVSS
notes: also called DLLBII78B04
As to B5, the binding result in experiment [10] was “binds”.

B6: 00050 (VHH)
VHH: EVQLVESGGGLVQPGGSLRLSCAASGFTFDDYALGWFRQAPGKEREGVSCIRCSDGSTYYADSVKGRFTISSDNSKNTVYLQMNSLRPEDTAVYYCAASIVPRSKLEPYEYDAWGQGTLVTVSS
For the molecule B6, the results for the “IC50 (read off the curve)” value in the experiment with mouse Ang2 [11], with human Ang2 [6] and with human Ang2 [7] were roughly 9 nM, roughly 6 nM and roughly 6 nM, respectively.

B7: DLLBII17C01 (VHH)
VHH: EVQLVESGGGLVQAGGSLRLSCAASGFTFDDYPIGWLRQAPGKEREGVSCISSSDDSTYYADSVKGRFTISSNNAKNTVYLQMNSLKPEDTAVYYCAVRLFSGGCAVVAGTSWADFGSSGQGTQVTVSS
notes: also called DLLBII17C1; not shown: C-terminal c-myc and His6 tags
On to B7, for which the “% inhibition” value was found to be 82% in experiment [3] and 84% in experiment [5]. In experiment [4], the koff worked out at 0.00056 s⁻¹.

B8: DLLBII133A09 (VHH)
VHH: EVQLVESGGGLVQPGGSLRLSCAASGFTFGSYDMSWVRRSPGKGPEWVSAINSGGGSTYYADYVKGRFTISRDNAKNTLYLQMNSLKPEDTAVYYCAADRYIWARQGEYWGAYAYDYWGQGTQVTVSS
notes: as for B2
By EC50 (read off the curve) is commonly meant the concentration that produces a half-maximal response. For B8, the binding result in [12] and in experiment [13] was “no binding” in each case. For the same molecule, the “EC50 (read off the curve)” value is roughly 0.7 nM in [14] and roughly 0.9 nM in experiment [15].

B9: 106H01 (VHH)
VHH: EVQLVESGGGLVQAGGSLRLSCAASGSTFSNYAMGWYRQAPGKQRELVVGISSDGSTHYADSAKGRFTISRDDAKNTVYLQMNSLKTEDTAVYYCYVPVKVAGLEYAYWGQGTQVTVSS
notes: also called DLLBII106H01
As to B9, the binding result in [10] and in experiment [16] was “binds” in each case.
